Measurements published in paper PMC4848625, “Structural Characterization of Humanized Nanobodies with Neutralizing Activity against the Bordetella pertussis CyaA-Hemolysin: Implications for a Potential Epitope of Toxin-Protective Antigen” (Toxins, 2016).

Molecular target: T1, CyaA-hemolysin (CyaA-Hly), 126-kDa truncated fragment of Bordetella pertussis adenylate cyclase-hemolysin … (Bordetella pertussis, strain not named; …, UniProt P0DKX7)
T1 construct: also called CyaA-Hly toxin; His-tagged CyaA-Hly domain
Assay: ELISA

T1 sequence (P0DKX7 whole entry, looked up, the tested form may be a part): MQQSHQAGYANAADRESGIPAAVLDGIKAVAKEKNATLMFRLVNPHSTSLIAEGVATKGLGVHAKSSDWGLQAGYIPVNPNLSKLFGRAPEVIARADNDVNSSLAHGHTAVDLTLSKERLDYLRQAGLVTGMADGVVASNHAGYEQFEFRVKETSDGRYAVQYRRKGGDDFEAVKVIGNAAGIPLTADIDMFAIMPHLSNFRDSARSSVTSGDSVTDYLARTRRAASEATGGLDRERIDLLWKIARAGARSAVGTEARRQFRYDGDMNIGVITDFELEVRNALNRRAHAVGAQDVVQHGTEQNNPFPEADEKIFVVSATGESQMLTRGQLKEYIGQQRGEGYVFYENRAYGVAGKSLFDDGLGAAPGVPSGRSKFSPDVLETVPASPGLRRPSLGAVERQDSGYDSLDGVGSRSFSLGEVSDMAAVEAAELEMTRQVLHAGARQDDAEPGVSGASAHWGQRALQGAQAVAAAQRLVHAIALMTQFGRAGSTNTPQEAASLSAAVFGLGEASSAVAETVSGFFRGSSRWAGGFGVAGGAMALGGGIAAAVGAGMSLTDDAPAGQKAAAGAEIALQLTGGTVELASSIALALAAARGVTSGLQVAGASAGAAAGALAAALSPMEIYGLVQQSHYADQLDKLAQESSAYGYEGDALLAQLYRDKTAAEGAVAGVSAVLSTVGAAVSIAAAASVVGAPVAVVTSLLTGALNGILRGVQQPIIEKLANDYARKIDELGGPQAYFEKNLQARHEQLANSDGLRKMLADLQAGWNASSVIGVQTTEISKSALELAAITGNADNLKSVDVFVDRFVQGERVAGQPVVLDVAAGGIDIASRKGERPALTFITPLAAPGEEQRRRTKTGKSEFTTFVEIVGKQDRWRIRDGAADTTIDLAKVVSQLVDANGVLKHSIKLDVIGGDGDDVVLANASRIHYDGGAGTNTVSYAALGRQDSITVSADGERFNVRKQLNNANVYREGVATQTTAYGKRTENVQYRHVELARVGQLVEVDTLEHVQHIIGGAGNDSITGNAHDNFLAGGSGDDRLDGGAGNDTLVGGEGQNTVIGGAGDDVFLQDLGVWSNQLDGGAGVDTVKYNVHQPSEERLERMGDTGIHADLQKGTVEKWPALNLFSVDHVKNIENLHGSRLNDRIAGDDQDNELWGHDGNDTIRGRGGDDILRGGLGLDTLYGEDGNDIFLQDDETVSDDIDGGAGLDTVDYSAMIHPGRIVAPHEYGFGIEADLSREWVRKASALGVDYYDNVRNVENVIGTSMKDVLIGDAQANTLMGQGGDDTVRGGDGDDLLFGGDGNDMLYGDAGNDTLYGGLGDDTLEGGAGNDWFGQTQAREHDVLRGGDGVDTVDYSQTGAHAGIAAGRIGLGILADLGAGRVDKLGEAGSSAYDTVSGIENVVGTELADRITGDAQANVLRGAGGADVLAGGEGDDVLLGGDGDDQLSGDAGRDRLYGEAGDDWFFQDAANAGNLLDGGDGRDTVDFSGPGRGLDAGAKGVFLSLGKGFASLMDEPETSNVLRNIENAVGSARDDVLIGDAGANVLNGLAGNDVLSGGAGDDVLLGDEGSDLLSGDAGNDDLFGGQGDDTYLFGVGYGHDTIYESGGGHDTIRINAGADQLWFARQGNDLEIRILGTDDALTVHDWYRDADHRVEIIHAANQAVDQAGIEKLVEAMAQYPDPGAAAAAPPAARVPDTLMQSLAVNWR

Binder | binding result (both partners purified) | binding result (one partner purified)
VHH37, His-tagged, purified and refolded (VHH, not shown: His6, C-terminal, kept) VHH: VQLVESGGGSVQAGGSLRLSCTASGFTFDDFDMGWYHQAPGNECELVSTISNAGHTYYADSVKGRFAISRDNAKNMVYLQMNNLKPEDTAMYYCAAVGALLGFPLVLARPRGGYNYWGQGTMVTVSS | binds | 
VHH37, E-tagged (clone no. 37, from the humanized-camel VH/VHH phage-display library) (VHH, source: E. coli HB2151, phagemid pCANTAB5E, IPTG-induced, in lysate; not shown: E tag, C-terminal, kept) VHH: VQLVESGGGSVQAGGSLRLSCTASGFTFDDFDMGWYHQAPGNECELVSTISNAGHTYYADSVKGRFAISRDNAKNMVYLQMNNLKPEDTAMYYCAAVGALLGFPLVLARPRGGYNYWGQGTMVTVSS |  | binds
VHH2, E-tagged (clone no. 2, from the humanized-camel VH/VHH phage-display library) (VHH, source: E. coli HB2151, phagemid pCANTAB5E, IPTG-induced, in lysate; not shown: E tag, C-terminal, kept) VHH: VQLVESGGGSVQAGGSLRLSCTVSGYTDNRYCMGWFRQAPGKEREGVAGINDFGGTTYYVDSVKGRFTISQNNAKNTVYLQMNSLKPEDTAIYYCAIAPRIWGSICSPGTQYNYWGQGTMVTVSS |  | binds
VHH2, His-tagged, purified and refolded (VHH, not shown: His6, C-terminal, kept) VHH: VQLVESGGGSVQAGGSLRLSCTVSGYTDNRYCMGWFRQAPGKEREGVAGINDFGGTTYYVDSVKGRFTISQNNAKNTVYLQMNSLKPEDTAIYYCAIAPRIWGSICSPGTQYNYWGQGTMVTVSS | binds | 
